Measured values as given in the supplement of paper PMC7877785.
± gives the uncertainty stated by the source.

Assay: self-splicing fitness, log relative to wild type (ln ratio); higher = more splicing; Tetrahymena group I intron in knt gene, E. coli kanamycin selection, DiMSum; sequences stand for … in CUCUCU…GGAGGGAAAAGUUAUCAGGCAUGCACCUGGUAGCUAGUCUUUAAACCAAUAGAUUGCAUCGGUUUAAAAGGCAAGACCGUCAAAUUGCGGGAAAGGGGUCAACAGCCGUUCAGUACCAAGUCUCAGGGGAAACUUUGAGAUGGCCUUGCAAAGGGUAUGGUAAUAAGCUGACGGACAUGGUCCUAACCACGCAGCCAAGUCCUAAGUCAACAGAUCUUCUGUUGAUAUGGAUGCAGUUCACAGACUAAAUGUCGGUCGGGGAAGAUGUAUUCUUCUCAUAAGAUAUAGUCGGACCUCUCCUUAAUGGGAGCUAGCGGAUGAAGUGAUGCAACACUGGAGCCGCUGGGAACUAAUUUGUAUGCGAAAGUAUAUUGAUUAGUUUUGGAGUACUCGUGGUCG
In short: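 Six replicate transformations of E. coli BL21(DE3) with a pET-22b(+) library were grown overnight at 37°C or 30°C. The library randomised all eight P1ex-region intron nucleotides, the intron lying in the knt kanamycin-resistance gene, and plates were LB agar with or without 25 μg/mL kanamycin plus 100 μg/mL carbenicillin, 50 μM IPTG and 0.2% rhamnose. Pooled colonies were amplicon-sequenced on an Illumina HiSeq 2500, and fitness is the DiMSum error-weighted combination of wild-type-normalised replicate fold changes, kanamycin versus none.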

Sequence | self-splicing fitness (ln) (30 °C) | self-splicing fitness (ln) (37 °C)
CUUUAGCAAUAUUACGCGAU | -3.05 ± 0.24 | -0.751 ± 0.17
CUUUAGCAAUAUUACGCGCC | -3.07 ± 0.37 | -2.39 ± 0.45
CUUUAGCAAUAUUACGCUAA | -4.31 ± 0.46 | -3.2 ± 0.47
CUUUAGCAAUAUUACGCUAG | -3.45 ± 0.31 | -2.11 ± 0.27
CUUUAGCAAUAUUACGGAAC | – | -1.93 ± 0.48
CUUUAGCAAUAUUACGGAAG | -3.17 ± 0.19 | -2.8 ± 0.23
CUUUAGCAAUAUUACGGAUG | -0.333 ± 0.067 | 0.313 ± 0.098
CUUUAGCAAUAUUACGGCCG | -0.432 ± 0.19 | -0.348 ± 0.29
CUUUAGCAAUAUUACGGCGU | -3.31 ± 0.47 | -1.89 ± 0.26
CUUUAGCAAUAUUACGGGAG | -2.89 ± 0.18 | -2.57 ± 0.21
CUUUAGCAAUAUUACGGGUU | -3.22 ± 0.34 | -0.807 ± 0.19
CUUUAGCAAUAUUACGGUCU | -3.25 ± 0.2 | -3.94 ± 0.36
CUUUAGCAAUAUUACGUACA | -2.89 ± 0.22 | –
CUUUAGCAAUAUUACGUAUU | -3.07 ± 0.24 | -1.34 ± 0.21
CUUUAGCAAUAUUACGUCAA | -2.48 ± 0.35 | -2.67 ± 0.38
CUUUAGCAAUAUUACGUCGC | – | -1.58 ± 0.34
CUUUAGCAAUAUUACGUGAU | -2.8 ± 0.14 | -1.05 ± 0.15
GAAAAGCAAUAUUACGAAGC | -3.19 ± 0.22 | -2.65 ± 0.28
GAAAAGCAAUAUUACGACAC | -0.467 ± 0.14 | -0.346 ± 0.17
GAAAAGCAAUAUUACGAGUC | -2.16 ± 0.15 | -0.233 ± 0.1
GAAAAGCAAUAUUACGAUUC | -2.34 ± 0.17 | -1.42 ± 0.15
GAAAAGCAAUAUUACGCAAG | -2.02 ± 0.11 | -1.46 ± 0.14
GAAAAGCAAUAUUACGCCAC | -5.15 ± 0.38 | -2.7 ± 0.36
GAAAAGCAAUAUUACGCGAA | -2.75 ± 0.2 | -1.13 ± 0.18
GAAAAGCAAUAUUACGCGAG | -1.64 ± 0.058 | -0.497 ± 0.068

Sequence | self-splicing fitness (ln) (30 °C) | self-splicing fitness (ln) (37 °C)
GAAAAGCAAUAUUACGCUAU | -2.9 ± 0.21 | -0.854 ± 0.2
GAAAAGCAAUAUUACGCUUA | -2.27 ± 0.14 | -1.39 ± 0.14
GAAAAGCAAUAUUACGGAUG | -2.63 ± 0.1 | -1.14 ± 0.1
GAAAAGCAAUAUUACGGGCA | -0.677 ± 0.086 | -0.191 ± 0.093
GAAAAGCAAUAUUACGGGUC | -2.09 ± 0.14 | -2.58 ± 0.22
GAAAAGCAAUAUUACGGUAC | -1.94 ± 0.079 | -1.11 ± 0.09
GAAAAGCAAUAUUACGUCGC | -1.38 ± 0.08 | -0.835 ± 0.086
GAAAAGCAAUAUUACGUCGU | -0.785 ± 0.086 | -1.29 ± 0.12
GAACAGCAAUAUUACGAACA | -0.908 ± 0.1 | -0.166 ± 0.12
GAACAGCAAUAUUACGAUAG | -3.6 ± 0.14 | -0.972 ± 0.094
GAACAGCAAUAUUACGAUGA | -0.145 ± 0.077 | -0.155 ± 0.081
GAACAGCAAUAUUACGCAAC | -1.58 ± 0.097 | -0.355 ± 0.13
GAACAGCAAUAUUACGCAAU | -1.53 ± 0.11 | -0.769 ± 0.11
GAACAGCAAUAUUACGCACC | -0.638 ± 0.096 | 0.0849 ± 0.097
GAACAGCAAUAUUACGCAGC | -2.2 ± 0.29 | -1.16 ± 0.23
GAACAGCAAUAUUACGCCAG | -3.71 ± 0.15 | -3.05 ± 0.27
GAACAGCAAUAUUACGCCUA | -1.42 ± 0.086 | -0.336 ± 0.087
GAACAGCAAUAUUACGCCUG | -1.85 ± 0.13 | 0.185 ± 0.13
GAACAGCAAUAUUACGCGCA | -0.367 ± 0.06 | 0.0257 ± 0.081
GAACAGCAAUAUUACGCGCG | -0.924 ± 0.064 | -0.265 ± 0.085
GAACAGCAAUAUUACGCGGG | -1.87 ± 0.1 | -1.37 ± 0.11
GAACAGCAAUAUUACGCUGA | -3.29 ± 0.2 | -2.04 ± 0.14
GAACAGCAAUAUUACGCUUU | -2.71 ± 0.14 | -1.93 ± 0.15
GAACAGCAAUAUUACGGAAC | -1.44 ± 0.1 | -1.55 ± 0.13
GAACAGCAAUAUUACGGAUA | -2.51 ± 0.13 | -1.28 ± 0.12

Sequence | self-splicing fitness (ln) (30 °C) | self-splicing fitness (ln) (37 °C)
GAACAGCAAUAUUACGGCCC | -0.734 ± 0.27 | -0.265 ± 0.28
GAACAGCAAUAUUACGGCCG | -2.39 ± 0.11 | -0.46 ± 0.14
GAACAGCAAUAUUACGGUCA | -0.702 ± 0.062 | -1.05 ± 0.066
GAACAGCAAUAUUACGGUUA | -0.16 ± 0.059 | -0.275 ± 0.064
GAACAGCAAUAUUACGUACA | -0.915 ± 0.073 | -0.72 ± 0.082
GAACAGCAAUAUUACGUCCA | -0.934 ± 0.089 | -0.369 ± 0.1
GAACAGCAAUAUUACGUCGA | -0.66 ± 0.066 | -0.117 ± 0.076
GAACAGCAAUAUUACGUCUC | -2.17 ± 0.17 | -0.443 ± 0.16
GAACAGCAAUAUUACGUGAG | -0.394 ± 0.031 | -0.235 ± 0.053
GAACAGCAAUAUUACGUGUC | -3.49 ± 0.14 | -3.22 ± 0.17
GAACAGCAAUAUUACGUUAA | -0.997 ± 0.068 | -0.105 ± 0.08
GAACAGCAAUAUUACGUUUU | -3.06 ± 0.083 | -2.25 ± 0.11
GAAGAGCAAUAUUACGACCG | -2.29 ± 0.36 | –
GAAGAGCAAUAUUACGAGAG | -2.3 ± 0.12 | -3.22 ± 0.27
GAAGAGCAAUAUUACGAGAU | -3.35 ± 0.23 | -2.08 ± 0.19
GAAGAGCAAUAUUACGAUUC | -3.57 ± 0.26 | -2.45 ± 0.28
GAAGAGCAAUAUUACGCACG | -2.22 ± 0.1 | -1.71 ± 0.16
GAAGAGCAAUAUUACGCCGG | -2.66 ± 0.18 | -2.5 ± 0.29
GAAGAGCAAUAUUACGCGGC | -2.37 ± 0.27 | -1.8 ± 0.33
GAAGAGCAAUAUUACGCUAA | – | -2.22 ± 0.3
GAAGAGCAAUAUUACGGACU | -2.93 ± 0.22 | -1.14 ± 0.13
GAAGAGCAAUAUUACGGAUA | -2.15 ± 0.22 | -2.85 ± 0.43
GAAGAGCAAUAUUACGGAUG | -3.4 ± 0.45 | -1.09 ± 0.31
GAAGAGCAAUAUUACGGCGU | -1.48 ± 0.1 | -0.224 ± 0.12
GAAGAGCAAUAUUACGGGCA | -1.96 ± 0.16 | -1.23 ± 0.14

Sequence | self-splicing fitness (ln) (30 °C) | self-splicing fitness (ln) (37 °C)
GAAGAGCAAUAUUACGGGCC | -2.16 ± 0.29 | –
GAAGAGCAAUAUUACGGGGA | -2.93 ± 0.43 | -0.71 ± 0.31
GAAGAGCAAUAUUACGGUAC | -3.39 ± 0.31 | -1.69 ± 0.32
GAAGAGCAAUAUUACGGUGG | -4.19 ± 0.33 | -3.17 ± 0.32
GAAGAGCAAUAUUACGUACC | -1.6 ± 0.2 | -1.49 ± 0.19
GAAGAGCAAUAUUACGUAUG | -3.52 ± 0.23 | -2.16 ± 0.17
GAAGAGCAAUAUUACGUGUA | -2.66 ± 0.2 | -2.76 ± 0.19
GAAGAGCAAUAUUACGUGUG | -3.15 ± 0.22 | -2.67 ± 0.18
GAAGAGCAAUAUUACGUUAU | -3.85 ± 0.25 | -1.47 ± 0.2
GAAGAGCAAUAUUACGUUCG | -1.52 ± 0.11 | -0.987 ± 0.14
GAAUAGCAAUAUUACGAACC | 0.0666 ± 0.21 | 0.816 ± 0.24
GAAUAGCAAUAUUACGAAUU | -1.78 ± 0.084 | -0.497 ± 0.1
GAAUAGCAAUAUUACGACAA | -0.386 ± 0.13 | -0.329 ± 0.13
GAAUAGCAAUAUUACGACAG | -3.2 ± 0.28 | -2.62 ± 0.35
GAAUAGCAAUAUUACGAGAA | -2.39 ± 0.46 | -1.6 ± 0.38
GAAUAGCAAUAUUACGAUGG | -2.74 ± 0.14 | -0.977 ± 0.12
GAAUAGCAAUAUUACGAUUU | -1.74 ± 0.12 | -0.649 ± 0.11
GAAUAGCAAUAUUACGCACC | -1.19 ± 0.23 | 0.185 ± 0.32
GAAUAGCAAUAUUACGCGAA | -3.09 ± 0.21 | -1.96 ± 0.2
GAAUAGCAAUAUUACGCGUA | -2.17 ± 0.16 | -0.973 ± 0.13
GAAUAGCAAUAUUACGCUAC | -1.75 ± 0.48 | –
GAAUAGCAAUAUUACGGAUG | -2.29 ± 0.099 | -2.01 ± 0.12
